Data: US11466067B2 (priority 2019, dated 2022)

Tests used:
[1] = test system: circulating cytokines; experiment: Plasma cytokines by MSD 10-plex, oxazolone dose response; design: species or system mice; details: mouse, in vivo
Excerpt: Plasma cytokines were quantified using the V-plex Proinflammatory Panel 1 Mouse Kit. Plasma IL-1Ra was quantitated by sandwich immunoassay using an antibody pair from the Mouse IL-1Ra/IL-1F3 DuoSet ELISA (R&D Systems #DY480), Streptavidin SULFO-TAG Labeled (MSD #R32AD-1), Multi-Array 96 Plate Pack, SECTOR Plate MSD #L15XA-3 and Read Buffer T (4×) (MSD #R92TC-2). Samples were read on the QuickPlex SQ 120 plate reader (Meso Scale Discovery, Rockville, Md.).

[2] = test system: IL-1Ra; experiment: Single oral capsule dose in NHP: plasma IL-1Ra; type: in vivo, Macaca fascicularis
Protocol: The purpose of the IL-1Ra assay was to measure endogenous IL-1Ra in NHP plasma. The antibody pair in this sandwich immunoassay reacted with both human and NHP IL-1Ra. Samples were quantitated using an 8-point standard curve prepared from a human IL-1Ra calibrator (ranging from 5.5-4021 pg/mL, plus 0 pg/mL). Biotinylated anti-NHP IL-1Ra capture antibody was added to a MSD Small Spot Streptavidin plate and incubated for an hour at RT with shaking. Controls that represent low ([…]), mid ([…]) and high concentrations (3245 pg/mL) were prepared in pooled plasma, Standards (Calibrator 9 Blend) were prepared in Diluent 43 (MSD Cat No R50AG), and samples diluted 10 fold in Diluent 43. Standards, controls and diluted samples were added to the assay plate, and the plate incubated for 2 hours at room temperature with shaking. The plate was washed 3 times with PBST, and 1×SULFO TAG anti-IL-1Ra Antibody added to the plate. The plate was incubated for 1 hour at room temperature with shaking. Following a wash step, 2×MSD Read buffer was added to the wells of the plate, and the plate read using the MSD Sector Imager 600 plate reader. The lower limit of detection of each analyte is defined as 2.5 standard deviation above background.
IL-10 delivery construct dosing at multiple fixed doses in non-naïve adult male Macaca fascicularis was conducted by Valley Biosystems (West Sacramento, Calif.). […] Dosing groups are described in TABLE 45.
Blood samples were collected in K2EDTA tubes from each animal pre-dose and at 0.5, 1, 2, 3, 4, 5, 6, 7, 8, and 24 hours post-dose. Animals were returned to home cages following the 2-hour sample collection. Following physical restraint, blood samples were collected via direct venous puncture using a cephalic, femoral or saphenous vein, which were processed to plasma and stored frozen at −60° C. until shipment.

[3] = test system: colonic tissue; experiment: Pan-colonic administration in NHP: colonic tissue IL-10, IL-1Ra, pSTAT3, cytokines; type: in vivo, cynomolgus monkeys
Protocol: IL-10 delivery construct solution (at concentrations of 0.1, 0.3 and 1.0 mg/mL for the low, mid and high-dose groups respectively) was administered via the rectal route using sigmoidoscopy and a syringe connected to a spray nozzle with a 360° spray pattern. Serial biopsy samples were collected by sigmoidoscopy (pre-dose, 0.25, 0.5, 0.75, 8 and 24-28 hours post dose). Serial plasma samples from 0 min pre-dose to between 24-28 hours post-dose were collected for analysis for the IL-10 delivery construct.
Phosphorylation of STAT3 is an early downstream event following IL-10 receptor activation.
(§1) Colonic biopsies at each tissue timepoint were analyzed for local concentration of IL-10 delivery construct, total IL-10, IL-1Ra, soluble cytokines, activation of STAT3 and gene expression following administration of the IL-10 delivery construct. […] In addition, STC1, MTNR1A and VNN2 encode proteins that suppress the […] signaling pathway, a pathway through which key pro-inflammatory cytokines are regulated. […] This is consistent with the ability of IL-10 to suppress these cells' activation or differentiation towards a pro-inflammatory immune phenotype.

[4] = test system: colonic genes; experiment: Pan-colonic administration in NHP: colonic gene expression at 8 h; type: in vivo, cynomolgus monkeys
Protocol: as §1

[5] = test system: STAT3, IL-1Ra; experiment: pSTAT3/STAT3 and systemic IL-1Ra in non-inflamed mice (ELISA MSD); type: in vivo
[6] = Intraluminal injection in T-cell transfer colitis model, rhIL-10 ELISA; type: in vivo, BALB/c and SCID mice
Protocol: This study was conducted to examine the potential for the carrier protein to transport rhIL-10 from the intestinal lumen into the submucosal region in inflamed intestinal tissue. The T lymphocyte (T cell) transfer model was used as it is a well-established model of induced chronic colitis in mice and presents many of the essential immunological hallmarks observed in IBD patients. Nine BALB/c mice and twelve SCID mice, including nine with the colitis-like model of inflammation, were dosed with 20 μl of test article via intraluminal injection into the distal ileum and the proximal, middle and distal colon.
PBS vehicle was administered to healthy BALB/c mice and both healthy and induced colitis SCID mice (n=3/group). In each group, two mice were terminated 10 minutes after intraluminal injections, and one was terminated 40 minutes after intraluminal injections. Intestinal tissue and serum were collected. Collected tissue was fixed, embedded, sectioned and H&E stained for histological assessment of inflammatory status. ELISA analysis to measure rhIL 10 was performed on lysates prepared from intestinal tissue and serum (FIGS. 106A-106D).

[7] = test system: enterocytes; experiment: Vesicular trafficking co-localization (Rab7, Rab11, LMAN1, LAMP1) in jejunum; type: in vivo, rat
Excerpt: The timing of LMAN1 redistribution to the basal compartment coincides with the presence of hIL-10 being ultimately detected in non-polarized cells within the Lamina propria where it was not associated with LMAN1.
Ultimately, the delivery construct is delivered to lysosome-like structures within a large fraction of cells within the Lamina propria, an outcome that would limit its systemic distribution following A-B transcytosis.

B1: IL-10 delivery construct: recombinant homodimeric fusion protein: N-terminal methionine, cholix386 domain, polyGlySer spacer, recombinant human IL-10 (protein)
chain: MVEEALNIFDECRSPCSLTPEPGKPIQSKLSIPSDVVLDEGVLYYSMTINDEQNDIKDEDKGESIITIGEFATVRATRHYVNQDAPFGVIHLDITTENGTKTYSYNRKEGEFAINWLVPIGEDSPASIKISVDELDQQRNIIEVPKLYSIDLDNQTLEQWKTQGNVSFSVTRPEHNIAISWPSVSYKAAQKEGSRHKRWAHWHTGLALCWLVPMDAIYNYITQQNCTLGDNWFGGSYETVAGTPKVITVKQGIEQKPVEQRIHFSKGNAMSALAAHRVCGVPLETLARSRKPRDLTDDLSCAYQAQNIVSLFVATRILFSHLDSVFTLNLDEQEPEVAERLSDLRRINENNPGMVTQVLTVARQIYNDYVTHHPGLTPEQTSAGAQAGGGGSGGGGSGGGGSPGQGTQSENSCTHFPGNLPNMLRDLRDAFSRVKTFFQMKDQLDNLLLKESLLEDFKGYLGCQALSEMIQFYLEEVMPQAENQDPDIKAHVNSLGENLKTLRLRLRRCHRFLPCENKSKAVEQVKNAFNKLQEKGIYKAMSEFDIFINYIEAYMTMKIRN
modifications: homodimer
[1]
  plasma cytokines, MSD 10-plex, vs Vehicle: no significant differences
[2]; 82 mg
  time of plasma IL-1Ra Cmax: 3 hours post-dose
[2]; 1, 4 and 20.5 mg
  dose response of IL-1Ra Cmax: No dose response relationship
[2]; all dose groups
  time by which plasma IL-1Ra returned to baseline: ≤ 24 hour post-dose
[3]; 1, 3, 10 mg
  total IL-10 in colonic tissue: dose-dependent increase
[3]; all doses tested
  colonic tissue pSTAT3/STAT3: Higher ratios
[4]
  MMP1, MMP3 and MMP19 expression: upregulated
  TIMP1 expression: increased
  anti-inflammatory genes (CD163, miR24-2, NOX1, STC1, MTNR1A, VNN2): upregulated
  pro-inflammatory genes (MHCII, PLA2G2D, CCL20, CCL13): decreased
[4]; 12-hour fast prior to treatment
  CYP1A1 expression: downregulated
[5]; construct 1 mg/kg, rhIL-10 0.9 mg/kg (equimolar), non-inflamed colon tissue
  increase in ratio of pSTAT3 to total STAT3: approximately 50%
[5]; construct 10 mg/kg, rhIL-10 3 mg/kg (equimolar)
  increase of systemic IL-1Ra: about 3 fold
[6]; 159 pmoles intraluminal
  rhIL-10 in serum of healthy animals: moderately high
  rhIL-10 in serum of inflamed animals: minimal amounts
[6]; 159 pmoles, 10 minutes
  rhIL-10 levels in inflamed tissue vs rhIL-10 alone: approximately 10 fold higher
  rhIL-10 uptake in normal intestinal tissues vs rhIL-10 alone: two- to five-fold higher
[7]; 1-15 min post ILI
  co-localization with LAMP1 in polarized enterocytes: Limited LAMP1/delivery construct co-localizations
  co-localization with LMAN1: co-localized with redistributing LMAN1
[7]; 10 min and 15 min post ILI
  co-localization with LAMP1 in non-polarized cells of Lamina propria: extensive LAMP1/delivery construct co-localizations
[7]; enterocytes
  co-localization with Rab7+ vesicles: predominantly in the apical vesicular compartment
  co-localization with Rab11+ vesicles: mostly in the basal vesicular compartment
